Each block holds one binder with its values, some of them ahead of it.
Columns and labels:
[1] = target: T1, human Jagged1 (human, UniProt P78504 34-1218); experiment: FACS, 5 µg/ml, 293T cells with human Jagged1
T1 construct: whole, on cells
Protocol: (§1) The ability of the purified antibodies to bind to human Jagged1 and Dll1 was determined by FACS analysis. […] Cells were resuspended in PBS containing 2% FCS and seeded at 50000 cells/well into V-bottomed plates. Anti-DLL4 antibodies diluted in PBS containing 2% FCS were added at a final concentration of 5 or 15 μg/ml and plates were incubated for 1 h at 4° C. […] Data was analyzed by comparing the shift in geometric mean fluorescence in the mock-transfected cells to that observed in the Jagged1- or Dll1-transfected cells and is shown in Tables 16 and 17.

[2] = target: T2, full length human DLL4 (human, UniProt Q9NR61 27-685); experiment: FMAT, hybridoma supernatant, 293T cells with human DLL4; FMAT, hybridoma supernatant, native full length human DLL4 on live 293T cells, room temperature
T2 construct: whole, on cells; also called native DLL4 expressed in HEK293 cells
Protocol: (§2) Cells diluted in PBS containing 2% FBS were seeded at a density of 3000 expressing and 15000 mock transfected cells per well in 384 well plates (Corning Costar, catalog #3712). Immediately after plating, 15 or 20 μl/well of hybridoma supernatants and 10 μl/well of secondary antibody (Goat anti-human IgG Fc Cy5, final concentration 750 ng/ml) were added and plates incubated for 3 h at room temperature prior to reading the fluorescence on the FMAT 8200 instrument (Applied Biosystems). The binding of human Notch1/Fc chimera (R&D systems, catalog #3647-TK), diluted 1:2 from 2.86 μg/ml was used as a positive control for DLL4 and human Notch3/Fc chimera diluted from 10 μg/ml was used a positive control for binding to Jagged1. Results for 12 hybridoma supernatants showing binding of hybridoma supernatants to human/cynomolgus monkey DLL4 and human Jagged are shown in Table 3.

[3] = target: T2, full length human DLL4; experiment: FMAT competition, supernatant vs Alexa-647 human Notch1/Fc, 293T cells with human DLL4; FMAT competition with Alexa-647 human Notch1/Fc, native human DLL4 on 293T cells, 4 C, n = 3
Protocol: (§3) Transfected and untransfected 239T cells were reconstituted in PBS containing 2% FCS and 5000 transfected and 17500 non-transfected cells were plated in 20 μl into wells of a 384-well tissue culture plate (Corning Costar, catalog #3712). Subsequently, 20 μl of hybridoma supernatant was added and plates were incubated at 4° C. for 1 h, at which time 20 μl of Alexa-647 labeled human Notch1/Fc was added at a final concentration of 6.7 ng/ml. After a further 3 h incubation at 4° C., the amount of bound Notch1/Fc was determined by reading the fluorescence in each well using an FMAT 8200 instrument (Applied Biosystems). Results are expressed as % inhibitions with the minimum inhibition in the assay being determined by the effects of non-DLL4 binding supernatants prepared in a similar way as described in example 2, and the maximum inhibition being defined as the signal obtained in the presence of a saturating concentration of unlabeled Notch1/Fc. N.T.=not tested

[4] = target: T2, full length human DLL4; experiment: FMAT competition, supernatant vs Alexa-647 human Notch1/Fc, 293T cells with human DLL4; FMAT competition with Alexa-647 human Notch1/Fc, native human DLL4 on 293T cells, 4 C, n = 2
Protocol: as §3

[5] = target: T2, full length human DLL4; experiment: FMAT competition, purified antibody vs Alexa-647 human Notch1/Fc, 293T cells with human DLL4
Protocol: To discriminate between the purified antibodies based upon their ability to prevent the interaction between full-length recombinant DLL4 and soluble Notch1/Fc, the following assays were performed. Transfected and untransfected 239T cells were reconstituted in PBS containing 2% FCS and 5000 transfected and 17500 non-transfected cells were plated in 30 μl into wells of a 384-well tissue culture plate (Corning Costar, catalog #3712). Subsequently, 30 μl of purified antibodies, serial diluted from 5 μg/ml hybridoma supernatant was added and plates were incubated at 4° C. for 1 h, at which time 20 μl of 100 ng/ml Alexa-647 labeled human Notch1/Fc was added. After a further 3 h incubation at 4° C., the amount of bound Notch1/Fc was determined by reading the fluorescence in each well using an FMAT 8200 instrument (Applied Biosystems).

[6] = target: T3, human Dll1 (human, UniProt O00548 18-723); experiment: FACS, 15 µg/ml, 293T cells with human Dll1 vs mock
T3 construct: whole, on cells
T3 sequence (looked up): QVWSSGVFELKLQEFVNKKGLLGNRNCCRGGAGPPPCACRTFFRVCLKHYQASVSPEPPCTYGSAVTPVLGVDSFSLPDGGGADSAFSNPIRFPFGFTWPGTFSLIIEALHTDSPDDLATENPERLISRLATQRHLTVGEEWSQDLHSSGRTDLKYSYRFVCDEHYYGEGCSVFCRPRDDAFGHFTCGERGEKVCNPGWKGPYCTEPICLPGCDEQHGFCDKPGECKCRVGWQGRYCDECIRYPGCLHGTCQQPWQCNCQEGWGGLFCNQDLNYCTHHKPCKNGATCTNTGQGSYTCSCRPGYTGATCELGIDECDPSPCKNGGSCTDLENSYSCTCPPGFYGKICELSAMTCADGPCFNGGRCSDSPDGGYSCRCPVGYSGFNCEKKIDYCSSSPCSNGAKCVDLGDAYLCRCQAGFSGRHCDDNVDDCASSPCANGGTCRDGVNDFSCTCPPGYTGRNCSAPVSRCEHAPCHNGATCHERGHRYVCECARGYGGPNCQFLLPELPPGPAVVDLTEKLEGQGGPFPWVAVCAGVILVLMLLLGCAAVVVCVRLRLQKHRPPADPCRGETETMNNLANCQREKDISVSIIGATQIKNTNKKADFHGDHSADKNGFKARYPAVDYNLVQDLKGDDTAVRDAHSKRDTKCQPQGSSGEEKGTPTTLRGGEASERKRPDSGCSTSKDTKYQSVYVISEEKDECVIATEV
Protocol: as §1

[7] = target: T3, human Dll1; experiment: FACS, 15 µg/ml, 293T cells with human Dll1
Protocol: as §1

[8] = target: T1, human Jagged1; experiment: FMAT, hybridoma supernatant, 293T cells with human Jagged1
Protocol: as §2

[9] = target: T1, human Jagged1; experiment: FACS, 5 µg/ml, 293T cells with human Jagged1 vs mock
Protocol: as §1

[10] = target: T4, human soluble DLL4 (R&D systems catalog #1056-D4-050) (human, UniProt Q9NR61 27-524); experiment: Biacore T100, antibody immobilised, soluble human DLL4 as analyte
T4 construct: Catalog number as printed; perhaps the same product as #1506-D4; also called antigen DLL4
Protocol: For Biacore analysis, each purified anti-DLL4 antibody was immobilized on a CM5 sensor chip within a T100 using standard amine coupling. Immobilization levels were kept below 200 RU. The concentration of DLL4 was determined by UV-VIS spectroscopy using a molar absorptivity at 280 nm of 110, 440 M⁻¹cm⁻¹, which was calculated from the sequence of the protein using a method developed by Pace et al. (G. R. Grimsley and C. N. Pace (2003) in Current Protocols in Protein Science (John Wiley & Sons, Inc.), 3.1.1-3.1.9). The antigen DLL4 (R&D systems; human catalog #1056-D4-050 or mouse, catalog #1389-D4-050) was diluted to a starting concentration of 32-64 nM and tested in a 3-fold dilution series in triplicate. The running buffer contained HBS-P with 0.1 mg/ml BSA and binding responses were collected at 23° C. Bound complexes were regenerated with a 15 s pulse of 10 mM of sodium hydroxide. The response data were globally fitted with a simple 1:1 interaction model and Table 20 summarizes the kₐ, kd and KD estimates obtained for the anti-DLL4 antibodies when binding to human soluble DLL4 was assessed.

[11] = target: T2, full length human DLL4; experiment: FACS competition vs human Notch1/Fc, HEK293 cells with human DLL4
Protocol: (§4) Further experiments were performed on selected antibodies using HEK293 cells that were stably transfected with either human, mouse or cynomolgus monkey DLL4 using retroviral constructs. In these experiments, anti-DLL4 antibodies (final concentration: 10-0.01 μg/ml) diluted in PBS containing 2% FCS were added to DLL4-expressing HEK 293 cells (50000 cells/well diluted in PBS containing 2% FCS) and incubated for 1 h at 4° C. Subsequently, Alexa-647 labeled human, rat or APC labeled mouse Notch1/Fc (e.g. R&D Systems, catalog #3647-TK-050, 1057-TK-050, 5267-TK-050, respectively) was added at a final concentration of 0.01-0.5 μg/ml and plates were incubated for a further 2 h at 4° C. prior to washing and reading on a FACSCalibur instrument.

[12] = target: T2, full length human DLL4; experiment: FACS titration, HEK293 cells with human DLL4
Protocol: The binding affinities of the purified antibodies for DLL4 was estimated using is both FACS and BIAcore techniques. […] The cells were then washed and incubated with goat anti-human IgG-Fc-Cy5+5 μg/mL 7-Amino-Actinomycin (7AAD) for 30 minutes at 4° C.
In this equation, F=mean fluorescence, LT=total molecular mAb concentration, P′=proportionality constant that relates arbitrary fluorescence units to bound mAb, M=cellular concentration in molarity, n=number of receptors per cell, B=background signal, and KD=equilibrium dissociation constant. For each mAb titration curve an estimate for KD is obtained as P′, n, B, and KD are allowed to float freely in the nonlinear analysis. Table 20 summarizes the affinity estimates for the anti-DLL4 antibodies for human and cynomolgus monkey DLL4 derived using the methodology described above

[13] = target: T5, full length mouse DLL4 (mouse, UniProt Q9JI71 27-686); experiment: FACS competition vs rat Notch1/Fc, HEK293 cells with mouse DLL4
T5 construct: whole, on cells
Protocol: as §4

T2 sequence (Q9NR61 27-685): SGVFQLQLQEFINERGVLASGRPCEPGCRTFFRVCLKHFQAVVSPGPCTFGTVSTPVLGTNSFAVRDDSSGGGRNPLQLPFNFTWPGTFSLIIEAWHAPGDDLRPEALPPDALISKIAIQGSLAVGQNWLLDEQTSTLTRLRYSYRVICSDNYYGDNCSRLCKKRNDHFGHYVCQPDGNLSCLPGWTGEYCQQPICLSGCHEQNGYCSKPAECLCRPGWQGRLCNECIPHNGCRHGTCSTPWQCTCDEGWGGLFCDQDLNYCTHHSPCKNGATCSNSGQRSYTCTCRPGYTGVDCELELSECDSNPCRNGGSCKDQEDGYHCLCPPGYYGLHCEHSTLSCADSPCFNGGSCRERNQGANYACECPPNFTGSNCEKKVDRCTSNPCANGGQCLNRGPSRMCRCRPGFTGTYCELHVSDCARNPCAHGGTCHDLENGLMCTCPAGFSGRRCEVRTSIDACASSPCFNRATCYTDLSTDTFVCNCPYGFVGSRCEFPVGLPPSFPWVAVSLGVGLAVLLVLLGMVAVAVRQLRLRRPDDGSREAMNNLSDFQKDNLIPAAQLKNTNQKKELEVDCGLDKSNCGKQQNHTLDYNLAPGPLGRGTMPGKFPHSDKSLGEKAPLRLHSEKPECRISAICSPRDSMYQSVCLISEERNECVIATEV
T1 sequence (P78504 34-1218): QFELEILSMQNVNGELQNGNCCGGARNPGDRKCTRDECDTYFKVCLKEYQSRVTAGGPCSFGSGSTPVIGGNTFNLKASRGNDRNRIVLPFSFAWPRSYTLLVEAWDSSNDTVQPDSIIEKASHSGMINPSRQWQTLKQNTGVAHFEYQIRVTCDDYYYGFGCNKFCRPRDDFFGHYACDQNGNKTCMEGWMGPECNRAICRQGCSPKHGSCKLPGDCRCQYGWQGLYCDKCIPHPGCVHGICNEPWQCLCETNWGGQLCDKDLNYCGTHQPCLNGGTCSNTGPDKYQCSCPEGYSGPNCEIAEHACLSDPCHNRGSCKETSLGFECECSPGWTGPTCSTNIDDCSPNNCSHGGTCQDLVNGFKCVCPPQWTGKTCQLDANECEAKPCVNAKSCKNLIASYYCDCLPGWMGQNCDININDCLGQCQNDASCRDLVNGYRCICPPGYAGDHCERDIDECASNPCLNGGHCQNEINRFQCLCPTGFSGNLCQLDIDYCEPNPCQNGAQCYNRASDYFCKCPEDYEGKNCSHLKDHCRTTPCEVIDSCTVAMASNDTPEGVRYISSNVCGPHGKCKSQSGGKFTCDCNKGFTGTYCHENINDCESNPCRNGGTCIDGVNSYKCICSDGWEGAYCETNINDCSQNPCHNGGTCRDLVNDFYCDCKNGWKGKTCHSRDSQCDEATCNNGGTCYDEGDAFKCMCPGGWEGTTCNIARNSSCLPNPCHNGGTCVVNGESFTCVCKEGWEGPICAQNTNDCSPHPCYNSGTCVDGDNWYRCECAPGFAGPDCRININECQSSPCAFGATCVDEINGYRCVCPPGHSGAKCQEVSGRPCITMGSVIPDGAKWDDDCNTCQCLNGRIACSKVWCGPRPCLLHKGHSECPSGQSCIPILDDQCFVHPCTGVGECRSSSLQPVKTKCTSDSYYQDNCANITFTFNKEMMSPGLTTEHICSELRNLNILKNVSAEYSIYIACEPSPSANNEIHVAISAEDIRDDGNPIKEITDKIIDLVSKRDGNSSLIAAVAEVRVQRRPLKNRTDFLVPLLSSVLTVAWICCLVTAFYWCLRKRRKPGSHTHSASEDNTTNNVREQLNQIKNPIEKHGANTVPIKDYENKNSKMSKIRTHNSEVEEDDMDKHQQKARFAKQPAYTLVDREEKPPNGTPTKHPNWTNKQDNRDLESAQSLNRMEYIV
T4 sequence (Q9NR61 27-524 limits assumed): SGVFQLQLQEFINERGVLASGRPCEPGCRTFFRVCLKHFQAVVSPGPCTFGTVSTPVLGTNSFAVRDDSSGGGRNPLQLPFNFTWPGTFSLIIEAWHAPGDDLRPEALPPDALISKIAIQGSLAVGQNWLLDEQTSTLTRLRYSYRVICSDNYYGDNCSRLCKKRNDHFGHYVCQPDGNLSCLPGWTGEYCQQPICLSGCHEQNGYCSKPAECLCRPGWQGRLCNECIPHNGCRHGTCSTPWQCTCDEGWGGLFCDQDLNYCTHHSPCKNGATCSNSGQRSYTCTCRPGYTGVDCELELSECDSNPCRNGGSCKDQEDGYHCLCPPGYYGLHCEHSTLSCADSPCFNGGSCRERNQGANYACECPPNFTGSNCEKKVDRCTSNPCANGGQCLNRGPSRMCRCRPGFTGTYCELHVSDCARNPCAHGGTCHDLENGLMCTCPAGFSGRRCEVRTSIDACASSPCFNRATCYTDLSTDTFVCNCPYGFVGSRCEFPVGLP
T5 sequence (Q9JI71 27-686): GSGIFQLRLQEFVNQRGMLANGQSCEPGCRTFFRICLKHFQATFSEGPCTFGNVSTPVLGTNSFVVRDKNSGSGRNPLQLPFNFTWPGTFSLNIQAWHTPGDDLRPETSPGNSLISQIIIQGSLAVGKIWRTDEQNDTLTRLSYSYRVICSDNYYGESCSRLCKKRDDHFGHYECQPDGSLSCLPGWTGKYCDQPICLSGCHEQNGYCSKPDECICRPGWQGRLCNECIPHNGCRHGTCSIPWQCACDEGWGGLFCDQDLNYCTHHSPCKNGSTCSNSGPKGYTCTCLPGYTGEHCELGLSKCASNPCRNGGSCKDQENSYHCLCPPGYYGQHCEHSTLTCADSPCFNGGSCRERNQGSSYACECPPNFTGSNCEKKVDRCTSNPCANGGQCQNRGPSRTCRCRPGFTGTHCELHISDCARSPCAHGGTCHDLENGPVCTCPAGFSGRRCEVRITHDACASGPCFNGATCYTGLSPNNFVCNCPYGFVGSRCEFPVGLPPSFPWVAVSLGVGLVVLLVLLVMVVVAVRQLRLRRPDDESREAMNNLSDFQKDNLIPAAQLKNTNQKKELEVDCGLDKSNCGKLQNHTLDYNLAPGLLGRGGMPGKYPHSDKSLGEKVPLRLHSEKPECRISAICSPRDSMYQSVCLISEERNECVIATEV

Jagged1/293T X Geo mean [1]: 16
Count [2]: 182
FL1 [2]: 10500
FL1 x count [2]: 1.9e+06
% inhibition n = 3 [3]: 143%
% inhibition n = 2 [4]: 88%
% inhibition at 0.020 nM [5]: -5%
% inhibition at 0.070 nM [5]: 3%
% inhibition at 0.21 nM [5]: -4%
% inhibition at 0.62 nM [5]: -14%
% inhibition at 1.9 nM [5]: 29%
% inhibition at 5.6 nM [5]: 114%
% inhibition at 16.7 nM [5]: 115%
IC50 [5]: 2.02 nM
Dll1/mock ratio [6]: 1.34
Dll1/293T X Geo mean [7]: 40
Count [8]: 3
FL1 [8]: 1500
FL1 x count [8]: 4490
Jagged1/mock ratio [9]: 1.12
B1: 20G8 (antibody, IgG4, V domains shown)
VH: QVQLVQSGAEVKKPGASVKVSCKASGYTFTSYGISWVRQAPGQGLEWMGWISVYNGNTNYAQKLQGRVTMTTDTSTSTAYMEVRSLRSDDTAVYYCARDRVPRIPRTTEAFDIWGRGTMVTVCS
VL: QSVLTQPPSASGTPGQRVTISCSGSSSNIGSYYVYWYQQLPGTAPKLLIYRDNQRPSGVPDRFSGSKSGTSASLAIRGLRSDDEADYYCAAWDDSLSGHWVFGGGTKLTVL
notes: Fully human; also used where no isotype is printed

Kd [10]: 0.598 nM
koff [10]: 0.000155 s⁻¹
kon [10]: 259000 M⁻¹ s⁻¹
IC50 [11]: 0.73 nM
Kd [12]: 0.32 nM
IC50 [13]: 13.5 nM
B2: 21H3 IgG2 (antibody, V domains shown)
VH: QVQLVQSGAEVKKPGASVKVSCKASGYTFTNYGITWVRQAPGQGPEWMGWISAYNGNTNYAQKLQDRVTVTTDTSTSTAYMELRSLRSDDTAVYYCARDRVPRIPVTTEAFDIWGQGTMVTVSS
VL: QSVLTQPPSASGTPGQRVTISCSGSSSNIGSYFVYWYQQLPGTAPKLLIYRNNQRPSGVPDRFSGSESGTSASLAISGLRSEDEADYYCAAWDDSLSGHWVFGGGTRLTVL
notes: Formatted as IgG2

Kd [10]: 0.721 nM
koff [10]: 0.00016 s⁻¹
kon [10]: 222000 M⁻¹ s⁻¹
IC50 [11]: 0.75 nM
Kd [12]: 0.225 nM
IC50 [13]: 15.6 nM
B3: 21H3RK IgG2 (antibody, V domains shown)
VH: QVQLVQSGAEVKKPGASVKVSCKASGYTFTNYGITWVRQAPGQGPEWMGWISAYNGNTNYAQKLQDRVTVTTDTSTSTAYMELRSLRSDDTAVYYCARDRVPRIPVTTEAFDIWGQGTMVTVSS
VL: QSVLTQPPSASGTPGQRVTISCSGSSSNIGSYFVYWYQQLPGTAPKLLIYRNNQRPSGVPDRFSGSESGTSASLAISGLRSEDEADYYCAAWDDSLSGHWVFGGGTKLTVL
notes: IgG2

Source: patent publication US20100196385A1 (AstraZeneca / MedImmune, published 2010)
